Patent US20240043489A1, “Cytokine Prodrugs Comprising a Cleavable Linker” (Trutino Biosciences Inc., priority 2020, published 2024)
Several values for one entry are separate records, joined by “and”; a condition that tells them apart may be missing. Equal entries are not always repeated. Where two headings read alike, the source gives them in different places. Blank lines part the entries; values can stand above or below the molecule they belong to.

Key:
[1] = molecular target: Collagen type I (Homo sapiens, UniProt P02452+P08123); details: binds to Collagen type I; Note 1 of Table 2; cited from earlier work
Collagen type I, sequence (P02452 162-1218 limits assumed): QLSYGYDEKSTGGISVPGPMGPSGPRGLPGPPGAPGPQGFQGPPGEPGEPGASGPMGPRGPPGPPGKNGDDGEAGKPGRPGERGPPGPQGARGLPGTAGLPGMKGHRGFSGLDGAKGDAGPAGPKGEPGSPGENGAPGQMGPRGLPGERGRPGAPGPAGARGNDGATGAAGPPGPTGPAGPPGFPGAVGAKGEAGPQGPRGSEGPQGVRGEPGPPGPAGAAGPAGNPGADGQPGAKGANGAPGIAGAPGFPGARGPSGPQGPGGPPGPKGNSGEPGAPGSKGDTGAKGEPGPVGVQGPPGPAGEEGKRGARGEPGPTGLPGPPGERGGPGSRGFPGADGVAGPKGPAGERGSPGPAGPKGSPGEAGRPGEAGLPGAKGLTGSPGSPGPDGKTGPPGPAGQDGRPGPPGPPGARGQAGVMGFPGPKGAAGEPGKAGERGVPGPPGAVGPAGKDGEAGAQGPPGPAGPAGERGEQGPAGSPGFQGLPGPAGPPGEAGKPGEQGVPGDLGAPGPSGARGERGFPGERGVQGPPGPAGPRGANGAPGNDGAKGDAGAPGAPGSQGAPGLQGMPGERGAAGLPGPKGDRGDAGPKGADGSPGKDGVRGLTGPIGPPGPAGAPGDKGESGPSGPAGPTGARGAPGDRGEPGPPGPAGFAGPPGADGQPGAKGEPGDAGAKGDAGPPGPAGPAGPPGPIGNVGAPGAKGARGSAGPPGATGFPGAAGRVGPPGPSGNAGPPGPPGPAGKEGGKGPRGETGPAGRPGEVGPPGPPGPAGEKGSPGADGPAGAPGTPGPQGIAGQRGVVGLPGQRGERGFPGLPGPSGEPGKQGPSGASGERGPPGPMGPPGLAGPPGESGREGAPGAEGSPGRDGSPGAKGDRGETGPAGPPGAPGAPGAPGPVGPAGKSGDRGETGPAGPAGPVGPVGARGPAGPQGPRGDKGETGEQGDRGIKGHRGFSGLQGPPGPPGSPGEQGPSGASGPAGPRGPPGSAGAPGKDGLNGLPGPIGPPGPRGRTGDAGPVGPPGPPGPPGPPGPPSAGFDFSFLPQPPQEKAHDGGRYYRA
Collagen type I, sequence (P08123 80-1119 limits assumed): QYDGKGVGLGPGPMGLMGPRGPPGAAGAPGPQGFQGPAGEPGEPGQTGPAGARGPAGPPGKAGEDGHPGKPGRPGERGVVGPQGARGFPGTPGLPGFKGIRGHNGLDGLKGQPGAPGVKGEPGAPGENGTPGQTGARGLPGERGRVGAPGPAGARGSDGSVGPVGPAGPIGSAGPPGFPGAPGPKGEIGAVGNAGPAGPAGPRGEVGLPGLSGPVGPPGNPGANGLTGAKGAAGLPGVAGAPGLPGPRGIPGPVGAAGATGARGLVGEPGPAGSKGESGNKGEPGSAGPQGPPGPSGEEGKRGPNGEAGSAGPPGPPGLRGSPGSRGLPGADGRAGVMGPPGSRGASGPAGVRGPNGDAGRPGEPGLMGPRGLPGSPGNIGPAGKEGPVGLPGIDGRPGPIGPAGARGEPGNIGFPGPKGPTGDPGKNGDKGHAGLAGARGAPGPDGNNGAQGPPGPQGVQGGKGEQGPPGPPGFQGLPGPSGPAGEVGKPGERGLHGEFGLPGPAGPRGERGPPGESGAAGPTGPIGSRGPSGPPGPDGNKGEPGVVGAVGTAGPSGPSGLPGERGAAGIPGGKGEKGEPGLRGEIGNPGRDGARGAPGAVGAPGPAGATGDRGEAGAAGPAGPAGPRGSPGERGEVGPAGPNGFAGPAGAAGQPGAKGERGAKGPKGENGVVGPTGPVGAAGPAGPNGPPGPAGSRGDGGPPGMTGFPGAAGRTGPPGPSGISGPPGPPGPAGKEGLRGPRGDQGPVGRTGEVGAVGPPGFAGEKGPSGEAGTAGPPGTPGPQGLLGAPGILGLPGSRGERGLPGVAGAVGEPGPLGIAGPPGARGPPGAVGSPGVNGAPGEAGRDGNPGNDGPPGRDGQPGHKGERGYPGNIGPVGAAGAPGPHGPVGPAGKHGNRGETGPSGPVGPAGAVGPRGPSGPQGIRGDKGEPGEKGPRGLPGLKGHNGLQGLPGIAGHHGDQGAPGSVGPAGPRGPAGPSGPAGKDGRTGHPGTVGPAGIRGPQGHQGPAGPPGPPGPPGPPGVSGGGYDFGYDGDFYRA

[2] = tested on: heparin; details: Note 1, cited from earlier work
[3] = tested on: HEK-Blue™ IL-2 cells; assay: HEK-Blue IL2 reporter assay (SEAP, OD630); assay type: cell-based; details: Table 5C
Procedure: Recombinant MMP9 and/or MMP2 (R&D Systems) was first activated with p-aminophenylmercuric acetate and this activated protease or equivalent amount of activating solution without the protease was used to digest or mock digest the fusion protein for 1 hr, 2 hr, 4 hr and overnight (18-22 hr) at 37 C. Cleavage assays are set up in TCNB buffer: 50 mM Tris, 10 mM CaCl2), 150 mM NaCl, 0.05% Brij-35 (w/v), pH 7.5. Digested protein was aliquoted and stored at −80° C. prior to testing. Aliquots of digests were subsequently analyzed by SDS-PAGE followed by Western blotting to evaluate the extent of cleavage. Digests were also assessed in functional assays such as CTLL-2 proliferation and HEK-Blue Interleukin reporter assays. As shown in FIGS. 2A-E, essentially complete cleavage by MMP9 protease of the fusion proteins with functional site is seen after overnight incubation. In contrast, proteins containing a scrambled MMP cleavage site are not cut (FIG. 2E). HEK-Blue™ IL-2 cells are specifically designed to monitor the activation of the JAK-STAT pathway induced by IL-2. Indeed, stimulation with human or murine IL-2 triggers the JAK/STAT5 pathway and induces secreted embryonic alkaline phosphatase (SEAP) production. SEAP can be readily monitored when using QUANTI-Blue™, a SEAP detection medium. These cells respond to human and murine IL-2. For the HEK Blue assay, untreated and digested samples are titrated and added to 50 000 HEK Blue cells per well in 200 ul medium in a 96-well plate and incubated at 37C in 5% CO2 for 20-24 hr. The following day, levels of SEAP are measured by adding 20 uL of cell supernatant to QuantiBlue reagent, followed by 1-3 h incubation at 37C and reading absorbance at 630 nm. FIGS. 3C-J, 3Q-Y and Table 5B-5C show results obtained from IL2 fusion proteins tested in HEK Blue IL2 assay.

[4] = molecular target: fibronectin (Homo sapiens, UniProt P02751); assay: IL-2 fusion protein plate binding assay to fibronectin
fibronectin, sequence (P02751 32-2477, species assumed): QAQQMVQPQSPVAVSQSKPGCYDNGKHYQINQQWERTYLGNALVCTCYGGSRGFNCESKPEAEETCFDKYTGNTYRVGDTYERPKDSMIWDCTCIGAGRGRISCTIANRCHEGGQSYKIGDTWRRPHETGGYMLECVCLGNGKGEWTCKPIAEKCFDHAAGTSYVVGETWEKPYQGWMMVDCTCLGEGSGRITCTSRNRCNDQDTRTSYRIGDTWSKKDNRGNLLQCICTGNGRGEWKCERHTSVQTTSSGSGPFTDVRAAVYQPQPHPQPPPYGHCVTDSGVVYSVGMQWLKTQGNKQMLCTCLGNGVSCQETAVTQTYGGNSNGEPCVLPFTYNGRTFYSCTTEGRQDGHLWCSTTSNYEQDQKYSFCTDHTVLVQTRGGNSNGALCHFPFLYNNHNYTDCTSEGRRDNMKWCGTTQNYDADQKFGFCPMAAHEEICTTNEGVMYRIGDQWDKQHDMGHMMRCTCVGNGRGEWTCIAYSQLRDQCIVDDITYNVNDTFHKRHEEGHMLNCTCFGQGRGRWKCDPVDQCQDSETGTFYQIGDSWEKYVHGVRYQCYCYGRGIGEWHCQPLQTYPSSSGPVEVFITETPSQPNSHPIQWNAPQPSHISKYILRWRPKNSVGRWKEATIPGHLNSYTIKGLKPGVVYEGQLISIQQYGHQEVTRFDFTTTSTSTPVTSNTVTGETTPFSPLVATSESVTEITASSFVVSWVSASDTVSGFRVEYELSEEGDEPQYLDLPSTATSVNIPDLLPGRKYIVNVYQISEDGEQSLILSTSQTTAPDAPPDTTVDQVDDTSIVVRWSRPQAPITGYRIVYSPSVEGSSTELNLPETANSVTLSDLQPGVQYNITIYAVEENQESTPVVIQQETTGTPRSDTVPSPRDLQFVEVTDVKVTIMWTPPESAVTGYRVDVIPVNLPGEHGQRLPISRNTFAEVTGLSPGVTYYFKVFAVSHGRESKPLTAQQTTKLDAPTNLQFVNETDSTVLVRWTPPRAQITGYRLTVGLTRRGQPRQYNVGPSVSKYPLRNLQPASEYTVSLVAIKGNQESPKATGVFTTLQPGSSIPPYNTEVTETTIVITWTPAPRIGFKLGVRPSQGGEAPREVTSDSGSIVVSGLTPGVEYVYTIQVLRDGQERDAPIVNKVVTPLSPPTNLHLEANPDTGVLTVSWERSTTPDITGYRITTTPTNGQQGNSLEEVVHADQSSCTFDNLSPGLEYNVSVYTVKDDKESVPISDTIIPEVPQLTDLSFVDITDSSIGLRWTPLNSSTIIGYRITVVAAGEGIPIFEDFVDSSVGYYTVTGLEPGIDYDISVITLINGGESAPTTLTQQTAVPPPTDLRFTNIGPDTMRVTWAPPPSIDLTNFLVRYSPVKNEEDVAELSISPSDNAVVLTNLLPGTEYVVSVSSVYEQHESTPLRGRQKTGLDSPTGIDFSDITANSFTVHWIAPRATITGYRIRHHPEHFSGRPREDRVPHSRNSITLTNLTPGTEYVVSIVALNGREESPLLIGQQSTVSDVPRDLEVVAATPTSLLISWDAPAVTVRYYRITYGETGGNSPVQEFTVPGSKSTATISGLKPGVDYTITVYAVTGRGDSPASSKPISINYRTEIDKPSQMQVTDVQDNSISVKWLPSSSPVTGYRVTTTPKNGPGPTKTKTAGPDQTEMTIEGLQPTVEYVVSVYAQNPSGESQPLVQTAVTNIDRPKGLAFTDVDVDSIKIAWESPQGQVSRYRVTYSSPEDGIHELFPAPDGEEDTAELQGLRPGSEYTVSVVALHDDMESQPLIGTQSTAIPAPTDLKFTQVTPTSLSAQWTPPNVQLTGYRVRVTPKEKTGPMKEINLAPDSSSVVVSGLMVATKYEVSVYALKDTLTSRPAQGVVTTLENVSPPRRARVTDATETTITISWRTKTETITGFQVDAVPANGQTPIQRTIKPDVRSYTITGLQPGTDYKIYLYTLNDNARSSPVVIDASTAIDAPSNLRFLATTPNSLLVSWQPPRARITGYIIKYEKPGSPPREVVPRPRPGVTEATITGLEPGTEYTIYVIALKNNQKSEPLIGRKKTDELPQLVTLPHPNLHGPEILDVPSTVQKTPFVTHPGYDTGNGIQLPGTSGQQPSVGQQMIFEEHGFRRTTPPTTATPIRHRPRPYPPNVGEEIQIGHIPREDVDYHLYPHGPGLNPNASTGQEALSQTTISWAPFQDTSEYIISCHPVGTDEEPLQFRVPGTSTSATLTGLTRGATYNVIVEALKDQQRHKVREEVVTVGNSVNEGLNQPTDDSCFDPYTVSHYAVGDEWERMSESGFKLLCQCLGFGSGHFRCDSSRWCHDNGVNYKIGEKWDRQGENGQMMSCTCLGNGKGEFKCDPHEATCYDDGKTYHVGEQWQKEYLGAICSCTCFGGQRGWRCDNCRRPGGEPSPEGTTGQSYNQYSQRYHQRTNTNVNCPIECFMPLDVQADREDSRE
Procedure: A similar plate-based assay was developed to interrogate binding of IL-2 fusion variants to fibronectin. 96-well plates were coated with 4 ug/mL of fibronectin (Sigma) or control BSA for 18-22 h at room temperature on shaker (350 rpm). After washing, wells are blocked with protein-free blocking buffer (Pierce) for 90 min, then fusion proteins are titrated in blocking buffer-0.1% Tween 20 pH 7.5 and/or pH 6 and added for 1 hr at room temperature with shaking. After washing, an anti-mouse IL-2 biotin-labelled detection antibody (JES6-5H4, ThermoFisher) is added and binding is detected using Ultra Streptavidin HRP (ThermoFisher). The plate was developed by adding the chromogenic tetramethylbenzidine substrate (Ultra TMB, ThermoFisher). The reaction is stopped by addition of 0.5M H2SO4 and the absorbance is read at 450-650 nm.

[5] = tested on: B16F10 melanoma; assay: In vivo efficacy of retention linker IL-2 drugs in B16F10 syngeneic model (Example 17); parameters: species or system mice
Procedure: (§1) In a first efficacy study, C57BL/6 mice were subcutaneously inoculated with B16F10 melanoma cells and when the average tumor volume reached on average 70-90 mm^3, animals were randomized into 5 groups based on tumor volumes (n=6 mice per treatment group). Mice were dosed intravenously every 3 days (Q3D) for a total of 5 doses according to following design:
as §1, with “second” for “first”, “study in the same model,” for “study,”
On Day 20, mice received an additional dose of drug, animals were sacrificed 24 hrs later and tissues and blood (processed to serum) were collected and stored at −80C for further testing. […] This is most likely due to the higher levels of both circulating drugs in serum and resident drug in TME, which can exert prolonged anti-tumor activity even after an extended dosing holiday.

[6] = tested on: heparin; assay: IL-2 fusion protein plate binding assay to Heparin-BSA conjugate; details: pH 6 vs pH 7.5, plate assay
Procedure: 96-well plates were coated with 25 ug/mL of Heparin-BSA conjugate (provided by Dr. Mueller, Boerhinger Ingelheim) or control BSA for 18-22 h at room temperature on shaker (350 rpm). After washing, wells are blocked with PBS-0.05% Tween 20/1% BSA for 90 min, then fusion proteins are titrated in 1% BSA/PBS-0.05% Tween 20 pH 7.5 and/or pH 6 and added for 2 hr at room temperature with shaking. After washing, an anti-mouse IL-2 biotin-labelled detection antibody (JES6-5H4, ThermoFisher) is added and binding is detected using Ultra Strepavidin HIRP (ThermoFisher). The plate was developed by adding the chromogenic tetramethylbenzidine substrate (Ultra TMB, ThermoFisher). The reaction is stopped by addition of 0.5M H2SO4 and the absorbance is read at 450-650 nm.

[7] = Full-length drug levels in serum by ELISA; assay type: in vivo, mice; details: Construct Y 20 mg/kg Day 21 (8 days after last IV) vs Construct B 20 mg/kg Day 17 (4 days after)
Procedure: We developed an ELISA assay to detect and quantify fusion proteins comprising IL-2 and IL-2Rα moieties. Wells of a 96-well plate are coated overnight with 100 uL of a rat anti-mouse IL-2 monoclonal antibody (JES6-1A12; ThermoFisher) at […] in PBS. After washing, wells are blocked with TBS/0.05% Tween 20/1% BSA, then fusion proteins and/or unknown biological samples are added for 1 hr at room temperature. After washing, an anti-mouse IL-2Rα biotin-labelled detection antibody (BAF2438, R&D systems) is added and binding is detected using Ultra Strepavidin HRP (ThermoFisher). The ELISA plate was developed by adding the chromogenic tetramethylbenzidine substrate (Ultra TMB, ThermoFisher). The reaction is stopped by addition of 0.5M H2SO4 and the absorbance is read at 450-650 nm.
Additional serum samples collected at Day 17 (Construct B 20 mg/kg) and Day 21 (Construct Y 20 mg/kg), 4 days and 8 days respectively after the last IV injection, were assayed for full-length IL-2 fusion drug.

[8] = cleaved with MMP9, read-out: +MMP EC50

Molecule: 191 (MIVIELGTNPLKSSGIENGAFQGMKK) [Construct 191]
- Kd [1]: 394 nM

Molecule: 648 (KVEHRVKKRPPTWRHNVRAKYT) [Construct 648]
- binding to heparin, pH dependence [2]: binds to heparin at low pH

Molecule: 189 (RRANAALKAGELYKSILYGC) [Construct 189]
- Kd [1]: 860 nM

Molecule: 642 (KHAHLKKQVSDHIAVY) [Construct 642]
- affinity of binding to heparin at low pH [2]: binds to heparin at low pH (high affinity)

Molecule: 195 (CPKESCNLFVLKD) [Construct 195]
- Kd [1]: 681 nM

Molecule: 644 (KHAHL) [Construct 644]
- affinity of binding to heparin at low pH [2]: binds to heparin at low pH (lower affinity)

Molecule: 192 (LRELHLNNN) [Construct 192]
- Kd [1]: 170 nM

Molecule: 649 (GGKVEHRVKKRPPTWRHNVRAKYT) [Construct 649]
- binding to heparin, pH dependence [2]: binds to heparin at low pH

Molecule: 650 (KKRPPTWRHNV) [Construct 650]
- binding to heparin, pH dependence [2]: binds to heparin at low pH

Molecule: 645 (TTEPSEEHNHHK) [Construct 645]
- affinity of binding to heparin at low pH [2]: binds to heparin at low pH (lower affinity)

Molecule: 197 (HVWMQAPGGGK) [Construct 197]
- Kd [1]: 61000 nM

Molecule: 643 (TTEPSEEHNHHK) [Construct 643]
- affinity of binding to heparin at low pH [2]: binds to heparin at low pH (low affinity)

Molecule: 194 (TKKTLRT) [Construct 194]
- Kd [1]: ≤ 100000 nM

Molecule: 196 (WREPSFCALS) [Construct 196]
- Kd [1]: 100000 nM

Molecule: 193 (WREPSFCALS) [Construct 193]
- Kd [1]: 100000 nM

Molecule: 647 (HKGQHR) [Construct 647]
- affinity of binding to heparin at low pH [2]: binds to heparin at low pH (lower affinity)

Molecule: 646 (TTEPSEEHNHHKHHDK) [Construct 646]
- affinity of binding to heparin at low pH [2]: binds to heparin at low pH (lower affinity)

B1: Construct AA: SEQ ID NO 811: m IL2-SGG-FHRRIKA-MMPcs1-2x(G4S)-mIL2Ra(1-215)-mu IgG1 Fc (protein)
chain: APTSSSTSSSTAEAQQQQQQQQQQQQHLEQLLMDLQELLSRMENYRNLKLPRMLTFKFYLPKQATELKDLQCLEDELGPLRHVLDLTQSKSFQLEDAENFISNIRVTVVKLKGSDNTFECQFDDESATVVDFLRRWIAFCQSIISTSPQSGGFHRRIKAGPLGVRGGGGGSGGGGSELCLYDPPEVPNATFKALSYKNGTILNCECKRGFRRLKELVYMRCLGNSWSSNCQCTSNSHDKSRKQVTAQLEHQKEQQTTTDMQKPTQSMHQENLTGHCREPPPWKHEDSKRIYHFVEGQSVHYECIPGYKALQRGPAISICKMKCGKTGWTQPQLTCVDEREHHRFLASEESQGSRNSSPESETSCPITTTDFPQPTETTAMTETFVLTMEYKGCKPCICTVPEVSSVFIFPPKPKDVLTITLTPKVTCVVVDISKDDPEVQFSWFVDDVEVHTAQTQPREEQFNSTFRSVSELPIMHQDWLNGKEFKCRVNSAAFPAPIEKTISKTKGRPKAPQVYTIPPPKEQMAKDKVSLTCMITDFFPEDITVEWQWNGQPAENYKNTQPIMDTDGSYFVYSKLNVQKSNWEAGNTFTCSVLHEGLHNHHTEKSLSHSPGK
- EC50 [3, 8]: 0.0109 nM
- EC50 ([3]; uncleaved, read-out: −MMP EC50): 0.442 nM

- fibronectin binding at pH 7.5 ([4]; pH 7.5 (neutral)): no binding is observed
B2: Construct EE: SEQ ID NO 815: m IL2-SGG-GGWSHW-MMPcs1-2x(G4S)-mIL2Ra(1-215)-mu IgG1 Fc (protein)
chain: APTSSSTSSSTAEAQQQQQQQQQQQQHLEQLLMDLQELLSRMENYRNLKLPRMLTFKFYLPKQATELKDLQCLEDELGPLRHVLDLTQSKSFQLEDAENFISNIRVTVVKLKGSDNTFECQFDDESATVVDFLRRWIAFCQSIISTSPQSGGGGWSHWGPLGVRGGGGGSGGGGSELCLYDPPEVPNATFKALSYKNGTILNCECKRGFRRLKELVYMRCLGNSWSSNCQCTSNSHDKSRKQVTAQLEHQKEQQTTTDMQKPTQSMHQENLTGHCREPPPWKHEDSKRIYHFVEGQSVHYECIPGYKALQRGPAISICKMKCGKTGWTQPQLTCVDEREHHRFLASEESQGSRNSSPESETSCPITTTDFPQPTETTAMTETFVLTMEYKGCKPCICTVPEVSSVFIFPPKPKDVLTITLTPKVTCVVVDISKDDPEVQFSWFVDDVEVHTAQTQPREEQFNSTFRSVSELPIMHQDWLNGKEFKCRVNSAAFPAPIEKTISKTKGRPKAPQVYTIPPPKEQMAKDKVSLTCMITDFFPEDITVEWQWNGQPAENYKNTQPIMDTDGSYFVYSKLNVQKSNWEAGNTFTCSVLHEGLHNHHTEKSLSHSPGK
- fibronectin binding at acidic pH ([4]; pH 6): preferentially binds fibronectin at acidic pH
- EC50 [3, 8]: 0.0066 nM
- EC50 ([3]; uncleaved, read-out: −MMP EC50): 1.18 nM
- TGI (%) D 15 ([5]; 10 mg/kg IV Q3D, 5 doses): 39.32%
- TGI (%) D 20 ([5]; 10 mg/kg, 7 days following the fifth dose): 37.61%

B3: Construct Y: SEQ ID NO 809: m IL2(C140S)-VRIQRKKEKMKET-MMPcs1-2x(G4S)-mIL2Ra (1-215)-mu IgG1 Fc (protein)
chain: APTSSSTSSSTAEAQQQQQQQQQQQQHLEQLLMDLQELLSRMENYRNLKLPRMLTFKFYLPKQATELKDLQCLEDELGPLRHVLDLTQSKSFQLEDAENFISNIRVTVVKLKGSDNTFECQFDDESATVVDFLRRWIAFSQSIISTSPQVRIQRKKEKMKETGPLGVRGGGGGSGGGGSELCLYDPPEVPNATFKALSYKNGTILNCECKRGFRRLKELVYMRCLGNSWSSNCQCTSNSHDKSRKQVTAQLEHQKEQQTTTDMQKPTQSMHQENLTGHCREPPPWKHEDSKRIYHFVEGQSVHYECIPGYKALQRGPAISICKMKCGKTGWTQPQLTCVDEREHHRFLASEESQGSRNSSPESETSCPITTTDFPQPTETTAMTETFVLTMEYKIEGRMDGCKPCICTVPEVSSVFIFPPKPKDVLTITLTPKVTCVVVDISKDDPEVQFSWFVDDVEVHTAQTQPREEQFNSTFRSVSELPIMHQDWLNGKEFKCRVNSAAFPAPIEKTISKTKGRPKAPQVYTIPPPKEQMAKDKVSLTCMITDFFPEDITVEWQWNGQPAENYKNTQPIMDTDGSYFVYSKLNVQKSNWEAGNTFTCSVLHEGLHNHHTEKSLSHSPGK
- EC50 [3, 8]: 0.0109 nM
- EC50 ([3]; uncleaved, read-out: −MMP EC50): 1.23 nM
- heparin binding (qualitative) [6]: bind heparin in dose-dependent manner and with higher affinity than Construct B
- TGI (%) D 13 ([5]; 20 mg/kg IV Q3D, 5 doses): 77% and 76.59%
- drug levels in circulation relative to Construct B [7]: more than 10 fold
